Test results published in PMC9687980 (Bioengineering, 2022).

Legend:
[1] = biological target: T1, MBP-fused spike receptor binding domain of SARS-CoV-2 Omicron BA.1 (MBP-RBDomi) (SARS-CoV-2 Omicron BA.1 (GenBank …, strain)); assay: ELISA; 4 ug of recombinant RBD immobilised on a high-binding plate; blocked with 4% skim milk; serial-diluted antibody in PBST; detected with Protein A-HRP, 450 nm; conditions: both partners purified
T1 construct: also called MBP-fused Omicron RBD; MBP-RBD_(omicron)

[2] = biological target: T2, spike RBD of SARS-CoV-2 Omicron expressed in a mammalian system (SARS-CoV-2 Omicron, taken as BA.1, strain, N-linked glycans appended on N331 and N343); assay: as above; conditions: both partners purified
T2 construct: also called Mammalian RBDomi; mammalian cell-expressing RBDomi

B1: CR3022, human IgG1 (antibody, V domains shown)
VH: QMQLVQSGTEVKKPGESLKISCKGSGYGFITYWIGWVRQMPGKGLEWMGIIYPGDSETRYSPSFQGQVTISADKSINTAYLQWSSLKASDTAIYYCAGGSGISTPMDVWGQGTTVTV
VL: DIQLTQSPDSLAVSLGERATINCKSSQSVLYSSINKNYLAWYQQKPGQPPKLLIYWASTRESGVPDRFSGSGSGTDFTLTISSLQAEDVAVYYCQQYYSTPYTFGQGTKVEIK
notes: IgG1
B1: binds [1]; binds [2].
